Experimental data reported in patent US20120329854.

Tests used:
[1] = molecular target: histone H3 in untreated nucleosomes purified from HeLa cells, P68431
[2] = molecular target: H3K4me3T6ph peptide (H3 tail residues 1-20), P68431
[3] = molecular target: H3K4me3 peptide (H3 tail residues 1-20), P68431
[4] = molecular target: H3K4me2T6ph peptide (H3 tail residues 1-20), P68431
[5] = molecular target: H3K4me2 peptide (H3 tail residues 1-20), P68431

B1: purified recombinant active PKCζ (ProQinase) (protein)
chain: MPSRTGPKMEGSGGRVRLKAHYGGDIFITSVDAATTFEELCEEVRDMCRLHQQHPLTLKWVDSEGDPCTVSSQMELEEAFRLARQCRDEGLIIHVFPSTPEQPGLPCPGEDKSIYRRGARRWRKLYRANGHLFQAKRFNRRAYCGQCSERIWGLARQGYRCINCKLLVHKRCHGLVPLTCRKHMDSVMPSQEPPVDDKNEDADLPSEETDGIAYISSSRKHDSIKDDSEDLKPVIDGMDGIKISQGLGLQDFDLIRVIGRGSYAKVLLVRLKKNDQIYAMKVVKKELVHDDEDIDWVQTEKHVFEQASSNPFLVGLHSCFQTTSRLFLVIEYVNGGDLMFHMQRQRKLPEEHARFYAAEICIALNFLHERGIIYRDLKLDNVLLDADGHIKLTDYGMCKEGLGPGDTTSTFCGTPNYIAPEILRGEEYGFSVDWWALGVLMFEMMAGRSPFDIITDNPDMNTEDYLFQVILEKPIRIPRFLSVKASHVLKGFLNKDPKERLGCRPQTGFSDIKSHAFFRSIDWDLLEKKQALPPFQPQITDDYGLDNFDTQFTSEPVQLTPDDEDAIKRIDQSEFEGFEYINPLLLSTEESV
For B1, the “phosphorylation of nucleosomes at H3T6 (in vitro kinase assay, Western blot with α-H3T6ph)” value (from here on “phosphorylation of nucleosomes at H3T6”) [1] was “only PKCα, 131 and 132 phosphorylate nucleosomes at H3T6 (PKCζ tested, no phosphorylation)”.

B2: purified recombinant active PKCµ (ProQinase) (protein)
chain: MSAPPVLRPPSPLLPVAAAAAAAAAALVPGSGPGPAPFLAPVAAPVGGISFHLQIGLSREPVLLLQDSSGDYSLAHVREMACSIVDQKFPECGFYGMYDKILLFRHDPTSENILQLVKAASDIQEGDLIEVVLSASATFEDFQIRPHALFVHSYRAPAFCDHCGEMLWGLVRQGLKCEGCGLNYHKRCAFKIPNNCSGVRRRRLSNVSLTGVSTIRTSSAELSTSAPDEPLLQKSPSESFIGREKRSNSQSYIGRPIHLDKILMSKVKVPHTFVIHSYTRPTVCQYCKKLLKGLFRQGLQCKDCRFNCHKRCAPKVPNNCLGEVTINGDLLSPGAESDVVMEEGSDDNDSERNSGLMDDMEEAMVQDAEMAMAECQNDSGEMQDPDPDHEDANRTISPSTSNNIPLMRVVQSVKHTKRKSSTVMKEGWMVHYTSKDTLRKRHYWRLDSKCITLFQNDTGSRYYKEIPLSEILSLEPVKTSALIPNGANPHCFEITTANVVYYVGENVVNPSSPSPNNSVLTSGVGADVARMWEIAIQHALMPVIPKGSSVGTGTNLHRDISVSISVSNCQIQENVDISTVYQIFPDEVLGSGQFGIVYGGKHRKTGRDVAIKIIDKLRFPTKQESQLRNEVAILQNLHHPGVVNLECMFETPERVFVVMEKLHGDMLEMILSSEKGRLPEHITKFLITQILVALRHLHFKNIVHCDLKPENVLLASADPFPQVKLCDFGFARIIGEKSFRRSVVGTPAYLAPEVLRNKGYNRSLDMWSVGVIIYVSLSGTFPFNEDEDIHDQIQNAAFMYPPNPWKEISHEAIDLINNLLQVKMRKRYSVDKTLSHPWLQDYQTWLDLRELECKIGERYITHESDDLRWEKYAGEQGLQYPTHLINPSASHSDTPETEETEMKALGERVSIL
In the case of B2, the “phosphorylation of nucleosomes at H3T6” value [1] is reported as “only PKCα, 131 and 132 phosphorylate nucleosomes at H3T6 (PKCµ tested, no phosphorylation)”.

B3: baculovirus expressed and purified GST-JARID1B (protein)
chain: MEAATTLHPGPRPALPLGGPGPLGEFLPPPECPVFEPSWEEFADPFAFIHKIRPIAEQTGICKVRPPPDWQPPFACDVDKLHFTPRIQRLNELEAQTRVKLNFLDQIAKYWELQGSTLKIPHVERKILDLFQLNKLVAEEGGFAVVCKDRKWTKIATKMGFAPGKAVGSHIRGHYERILNPYNLFLSGDSLRCLQKPNLTTDTKDKEYKPHDIPQRQSVQPSETCPPARRAKRMRAEAMNIKIEPEETTEARTHNLRRRMGCPTPKCENEKEMKSSIKQEPIERKDYIVENEKEKPKSRSKKATNAVDLYVCLLCGSGNDEDRLLLCDGCDDSYHTFCLIPPLHDVPKGDWRCPKCLAQECSKPQEAFGFEQAARDYTLRTFGEMADAFKSDYFNMPVHMVPTELVEKEFWRLVSTIEEDVTVEYGADIASKEFGSGFPVRDGKIKLSPEEEEYLDSGWNLNNMPVMEQSVLAHITADICGMKLPWLYVGMCFSSFCWHIEDHWSYSINYLHWGEPKTWYGVPGYAAEQLENVMKKLAPELFVSQPDLLHQLVTIMNPNTLMTHEVPVYRTNQCAGEFVITFPRAYHSGFNQGFNFAEAVNFCTVDWLPLGRQCVEHYRLLHRYCVFSHDEMICKMASKADVLDVVVASTVQKDMAIMIEDEKALRETVRKLGVIDSERMDFELLPDDERQCVKCKTTCFMSAISCSCKPGLLVCLHHVKELCSCPPYKYKLRYRYTLDDLYPMMNALKLRAESYNEWALNVNEALEAKINKKKSLVSFKALIEESEMKKFPDNDLLRHLRLVTQDAEKCASVAQQLLNGKRQTRYRSGGGKSQNQLTVNELRQFVTQLYALPCVLSQTPLLKDLLNRVEDFQQHSQKLLSEETPSAAELQDLLDVSFEFDVELPQLAEMRIRLEQARWLEEVQQACLDPSSLTLDDMRRLIDLGVGLAPYSAVEKAMARLQELLTVSEHWDDKAKSLLKARPRHSLNSLATAVKEIEEIPAYLPNGAALKDSVQRARDWLQDVEGLQAGGRVPVLDTLIELVTRGRSIPVHLNSLPRLETLVAEVQAWKECAVNTFLTENSPYSLLEVLCPRCDIGLLGLKRKQRKLKEPLPNGKKKSTKLESLSDLERALTESKETASAMATLGEARLREMEALQSLRLANEGKLLSPLQDVDIKICLCQKAPAAPMIQCELCRDAFHTSCVAVPSISQGLRIWLCPHCRRSEKPPLEKILPLLASLQRIRVRLPEGDALRYMIERTVNWQHRAQQLLSSGNLKFVQDRVGSGLLYSRWQASAGQVSDTNKVSQPPGTTSFSLPDDWDNRTSYLHSPFSTGRSCIPLHGVSPEVNELLMEAQLLQVSLPEIQELYQTLLAKPSPAQQTDRSSPVRPSSEKNDCCRGKRDGINSLERKLKRRLEREGLSSERWERVKKMRTPKKKKIKLSHPKDMNNFKLERERSYELVRSAETHSLPSDTSYSEQEDSEDEDAICPAVSCLQPEGDEVDWVQCDGSCNQWFHQVCVGVSPEMAEKEDYICVRCTVKDAPSRK
In the case of B3, the “demethylation assay, mass spectrometry” value [2] is reported as “demethylation of tri- and dimethyl H3K4 peptides phosphorylated at T6 (H3K4me3T6ph and H3K4me2T6ph) is severely impaired”, the “demethylation assay, mass spectrometry” value [3] is reported as “Recombinant, purified JARID1B (FIG. 9) efficiently demethylates H3K4me3 and H3K4me2 peptides” and the “demethylation assay, mass spectrometry” value [4] is reported as “demethylation of tri- and dimethyl H3K4 peptides phosphorylated at T6 (H3K4me3T6ph and H3K4me2T6ph) is severely impaired”. For the same protein, the “demethylation assay, mass spectrometry” value [5] was “Recombinant, purified JARID1B (FIG. 9) efficiently demethylates H3K4me3 and H3K4me2 peptides”.

B4: purified recombinant active PKCι (ProQinase) (protein)
chain: MSHTVAGGGSGDHSHQVRVKAYYRGDIMITHFEPSISFEGLCNEVRDMCSFDNEQLFTMKWIDEEGDPCTVSSQLELEEAFRLYELNKDSELLIHVFPCVPERPGMPCPGEDKSIYRRGARRWRKLYCANGHTFQAKRFNRRAHCAICTDRIWGLGRQGYKCINCKLLVHKKCHKLVTIECGRHSLPQEPVMPMDQSSMHSDHAQTVIPYNPSSHESLDQVGEEKEAMNTRESGKASSSLGLQDFDLLRVIGRGSYAKVLLVRLKKTDRIYAMKVVKKELVNDDEDIDWVQTEKHVFEQASNHPFLVGLHSCFQTESRLFFVIEYVNGGDLMFHMQRQRKLPEEHARFYSAEISLALNYLHERGIIYRDLKLDNVLLDSEGHIKLTDYGMCKEGLRPGDTTSTFCGTPNYIAPEILRGEDYGFSVDWWALGVLMFEMMAGRSPFDIVGSSDNPDQNTEDYLFQVILEKQIRIPRSLSVKAASVLKSFLNKDPKERLGCHPQTGFADIQGHPFFRNVDWDMMEQKQVVPPFKPNISGEFGLDNFDSQFTNEPVQLTPDDDDIVRKIDQSEFEGFEYINPLLMSAEECV
With B4 the “phosphorylation of nucleosomes at H3T6” value [1] was “only PKCα, 131 and 132 phosphorylate nucleosomes at H3T6 (PKCι tested, no phosphorylation)”.
